Test [1] deals with Human BCMA (human) (UniProt Q02223). Description: SPR, IgG immobilised, huBCMA analyte, 37 C. (In general: SPR reads the build-up and loss of mass on a sensor chip optically.)
The target of test [2] is T1, cynomolgus monkey BCMA (cynomolgus monkey, UniProt A0A2K5UD97 1-53).
T1 construct: Soluble analyte in SPR; construct not described; also called cyBCMA; Cyno BCMA
Put plainly: SPR, IgG on chip, cyBCMA analyte, 37C.

The target in test [3] is Human BCMA (human) (UniProt Q02223). Description: SPR, IgG on chip, huBCMA analyte.
In test [4] the target is T1, cynomolgus monkey BCMA. Put plainly: SPR, IgG on chip, cyBCMA analyte.

Substitutions are numbered along the chain they refer to.

T1 sequence (A0A2K5UD97 entry or part of it): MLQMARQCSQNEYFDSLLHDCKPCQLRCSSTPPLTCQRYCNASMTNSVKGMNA

B1: L3.PY/L3.KF/H3.AQ (antibody, V domains shown)
VH: EVQLLESGGGLVQPGGSLRLSCAASGFTFGSYAMTWVRQAPGKGLEWVSAISGSGGNTFYADSVKGRFTISRDNSKNTLYLQMNSLRAEDTAVYYCARVSPIAAQMDYWGQGTLVTVSS
VL: EIVLTQSPGTLSLSPGERATLSCRASQSVSSSYLAWYQQKPGQAPRLLIYGASSRATGIPDRFSGSGSGTDFTLTISRLEPEDFAVYYCKFYPYPPSFTFGQGTKVEIK
notes: IgG
Turning to B1, in test [1], the Kd (as a rule, a measure of binding affinity in units of concentration) stood at 650 pM; the T½ was found to be 5.09 min; the koff – broadly, the first-order rate constant of dissociation – stood at 0.00227 s⁻¹; the kon (commonly the rate constant with which the complex forms) was 3.48e+06 M⁻¹ s⁻¹. Further, in test [2], binding was characterised by a dissociation constant (Kd) of 930 pM, the “T½” value worked out at 4.85 min, the koff stood at 0.00238 s⁻¹ and the kon is 2.55e+06 M⁻¹ s⁻¹.

B2: L3.PY/L1.FF/H3.AE (antibody, V domains shown)
VH: B1 VH with Q105E
VL: B1 VL with S32F, Y33F, K90Q, F91H
notes: IgG
B2: in test [1], the Kd amounted to 690 pM, the T½ was determined as 4.39 min, the koff amounted to 0.00263 s⁻¹ and the kon was 3.82e+06 M⁻¹ s⁻¹. Besides, in test [2], the Kd amounted to 1760 pM, the “T½” value stood at 2.31 min, the koff came out at 0.00501 s⁻¹ and the kon stood at 2.85e+06 M⁻¹ s⁻¹.

B3: L3.PY/L1.FF/H3.TAQ (antibody, V domains shown)
VH: B1 VH with A97T
VL: B1 VL with S32F, Y33F, K90Q, F91H
notes: IgG
In test [1], B3 gave a Kd of 540 pM, a T½ of 6.12 min, a koff of 0.00189 s⁻¹ and an on-rate constant (kon) of 3.52e+06 M⁻¹ s⁻¹. Moreover, in test [2], the Kd is 1620 pM, the “T½” value worked out at 3.07 min, the koff was 0.00376 s⁻¹ and the kon is 2.32e+06 M⁻¹ s⁻¹.

B4: L3.PY/L1.FF/H3.AQ (antibody, V domains shown)
VH: B1 VH
VL: B1 VL with S32F, Y33F, K90Q, F91H
notes: IgG
Turning to B4, in test [1], the Kd was found to be 460 pM, the T½ came out at 7.51 min, the koff was determined as 0.00154 s⁻¹ and the kon was 3.32e+06 M⁻¹ s⁻¹. Further, in test [2], the Kd stood at 1510 pM, the “T½” value came out at 3.51 min, the koff amounted to 0.00329 s⁻¹ and the kon is 2.18e+06 M⁻¹ s⁻¹.

B5: L3.PY/L1.AH/H3.TAQ (antibody, V domains shown)
VH: B1 VH with A97T
VL: B1 VL with S31A, S32H, K90Q, F91H
notes: IgG
Regarding B5, in test [1], the Kd turned out to be 370 pM, the T½ was determined as 9.68 min, the koff is 0.00119 s⁻¹ and the kon worked out at 3.27e+06 M⁻¹ s⁻¹. In test [2], the Kd was determined as 1320 pM, the “T½” value was found to be 3.83 min, the koff came out at 0.00302 s⁻¹ and the kon is 2.28e+06 M⁻¹ s⁻¹.

B6: L3.PY/L1.FF/H2.YQ (antibody, V domains shown)
VH: B1 VH with G53Y, S54Q, A104S, Q105G
VL: B1 VL with S32F, Y33F, K90Q, F91H
notes: IgG
For B6, in test [1], the Kd is 460 pM, the T½ was 7.61 min, the koff stood at 0.00152 s⁻¹ and the kon is 3.32e+06 M⁻¹ s⁻¹. Moreover, in test [2], the Kd is 1490 pM, the “T½” value came out at 3.55 min, the koff amounted to 0.00326 s⁻¹ and the kon is 2.19e+06 M⁻¹ s⁻¹.

B7: L3.PY/L1.FF/H3.YA (antibody, V domains shown)
VH: B1 VH with A103Y, Q105G
VL: B1 VL with S32F, Y33F, K90Q, F91H
notes: IgG
As to B7, in test [1], the dissociation constant (Kd) worked out at 510 pM, the T½ is 6.41 min, the koff came out at 0.0018 s⁻¹ and the kon was found to be 3.5e+06 M⁻¹ s⁻¹. In test [2], the affinity, expressed as Kd, was 1690 pM; the “T½” value came to 2.77 min; the koff came to 0.00416 s⁻¹; the kon stood at 2.46e+06 M⁻¹ s⁻¹.

B8: L3.PY/L1.FF/H2.QR (antibody, V domains shown)
VH: B1 VH with S63Q, V64R, A104S, Q105G
VL: B1 VL with S32F, Y33F, K90Q, F91H
notes: IgG
In test [1], B8 registered a dissociation constant (Kd) of 510 pM, a T½ of 6.54 min, a koff of 0.00177 s⁻¹ and a kon of 3.47e+06 M⁻¹ s⁻¹. Besides, in test [2], the Kd was 1650 pM, the “T½” value was 2.75 min, the koff was 0.00421 s⁻¹ and the kon turned out to be 2.55e+06 M⁻¹ s⁻¹.

B9: L3.PY/L1.FF/H2.HA (antibody, V domains shown)
VH: B1 VH with G53H, S54A, A104S, Q105G
VL: B1 VL with S32F, Y33F, K90Q, F91H
notes: IgG
With B9, in test [1], the Kd stood at 630 pM, the T½ was found to be 5.29 min, the koff worked out at 0.00219 s⁻¹ and the kon worked out at 3.49e+06 M⁻¹ s⁻¹. In test [2], the Kd was found to be 1790 pM, the “T½” value was 2.77 min, the koff was found to be 0.00417 s⁻¹ and the kon worked out at 2.33e+06 M⁻¹ s⁻¹.

B10: L3.PY/L1.FF/H2.QL (antibody, V domains shown)
VH: B1 VH with S63Q, V64L, A104S, Q105G
VL: B1 VL with S32F, Y33F, K90Q, F91H
notes: IgG
In test [1], B10 registered a Kd of 400 pM, a T½ of 8.28 min, a koff of 0.0014 s⁻¹ and a kon of 3.48e+06 M⁻¹ s⁻¹. In test [2], the Kd was determined as 1910 pM, the “T½” value was determined as 2.57 min, the koff is 0.00449 s⁻¹ and the kon stood at 2.36e+06 M⁻¹ s⁻¹.

B11: L3.PY/L1.FF/H2.DY (antibody, V domains shown)
VH: B1 VH with S52D, G53Y, A104S, Q105G
VL: B1 VL with S32F, Y33F, K90Q, F91H
notes: IgG
In the case of B11, in test [1], the Kd is 650 pM, the T½ came out at 4.27 min, the koff amounted to 0.00271 s⁻¹ and the kon stood at 4.14e+06 M⁻¹ s⁻¹. Moreover, in test [2], the Kd was found to be 1880 pM, the “T½” value came out at 2.31 min, the koff stood at 0.005 s⁻¹ and the kon amounted to 2.66e+06 M⁻¹ s⁻¹.

B12: L3.PY/L1.FF/H2.LT (antibody, V domains shown)
VH: B1 VH with G53L, S54T, A104S, Q105G
VL: B1 VL with S32F, Y33F, K90Q, F91H
notes: IgG
On to B12, for which, in test [1], the Kd amounted to 510 pM, the T½ came out at 6.92 min, the koff is 0.00167 s⁻¹ and the kon is 3.3e+06 M⁻¹ s⁻¹. Also, in test [2], binding was put at a Kd of 1560 pM, the “T½” value was found to be 3.38 min, the koff is 0.00341 s⁻¹ and the kon is 2.19e+06 M⁻¹ s⁻¹.

B13: COMBO_Rd4_6nM_C21 (antibody, V domains shown)
VH: EVQLLESGGGLVQPGGSLRLSCAASGFTFSSYPMSWVRQAPGKGLEWVSAIGGSGGSLPYADSVKGRFTISRDNSKNTLYLQMNSLRAEDTAVYYCARYWPMDSWGQGTLVTVSS
VL: EIVLTQSPGTLSLSPGERATLSCRASQSVSAAYLAWYQQKPGQAPRLLMYDASIRATGIPDRFSGSGSGTDFTLTISRLEPEDFAVYYCQQYMCWPLTFGQGTKVEIK
notes: IgG
As for B13, in test [3], the Kd was found to be 6 pM, the koff worked out at 7.34e-05 s⁻¹ and the kon was 1.17e+07 M⁻¹ s⁻¹. Besides, in test [4], the Kd was found to be 78 pM, the koff was 0.000248 s⁻¹ and the kon worked out at 3.17e+06 M⁻¹ s⁻¹.

B14: COMBO_Rd4_6nM_C12 (antibody, V domains shown)
VH: EVQLLESGGGLVQPGGSLRLSCAASGFTFSSYPMSWVRQAPGKGLEWVSAALGSGGSTYYADSVKGRFTISRDNSKNTLYLQMNSLRAEDTAVYYCARYWPMDSWGQGTLVTVS
VL: B13 VL with A32S, C94S
notes: IgG
With B14, in test [3], the Kd amounted to 20 pM, the koff turned out to be 0.00027 s⁻¹ and the kon came to 1.38e+07 M⁻¹ s⁻¹. In test [4], this molecule gave a Kd of 148 pM, a koff of 0.000486 s⁻¹ and a kon of 3.29e+06 M⁻¹ s⁻¹.

B15: A02_Rd4_0.6nM_C18 (antibody, V domains shown)
VH: B13 VH with P33A, S35N, I51V, G52L, G53D, L58T, P59Y, D103S, S104L
VL: B13 VL with A31E, A32L, M93F, C94G
notes: IgG
As to B15, in test [3], the Kd stood at 48 pM, the koff amounted to 0.000229 s⁻¹ and the kon stood at 4.73e+06 M⁻¹ s⁻¹. Moreover, in test [4], the Kd worked out at 197 pM, the koff was 0.000639 s⁻¹ and the kon came out at 3.24e+06 M⁻¹ s⁻¹.

B16: COMBO_Rd4_0.6nM_C22 (antibody, V domains shown)
VH: B13 VH with P33A, S35N, G52S, G53D, L58R, P59W, A97T, S104I
VL: B13 VL with Q27V, S28R, A31S, A32T, C94K
notes: IgG; also called COM22
In test [3], B16 yielded a Kd of 36 pM, a koff of 7.15e-05 s⁻¹ and a kon of 1.97e+06 M⁻¹ s⁻¹. Moreover, in test [4], the Kd is 50 pM, the koff was 6.66e-05 s⁻¹ and the kon is 1.34e+06 M⁻¹ s⁻¹.

B17: COMBO_Rd4_6nM_C22 (antibody, V domains shown)
VH: B13 VH with P33A, S35N, I51C, G52L, G53D, L58T, P59Y
VL: B13 VL with A31S, A32S, M93Q, C94G
notes: IgG
In the case of B17, in test [3], the Kd was 256 pM, the koff was determined as 0.000775 s⁻¹ and the kon was 3.03e+06 M⁻¹ s⁻¹. In addition, in test [4], the Kd was 972 pM, the koff is 0.00165 s⁻¹ and the kon amounted to 1.7e+06 M⁻¹ s⁻¹.

B18: P5A2_VHVL (antibody, V domains shown)
VH: B13 VH with P33A, S35N, G52S, G53D, L58T, P59Y, S104I
VL: B13 VL with A31S, A32S, M93G, C94S
notes: IgG
In test [3], B18 gave a Kd of 5570 pM, a koff of 0.0387 s⁻¹ and a kon of 6.96e+06 M⁻¹ s⁻¹. In test [4], the Kd turned out to be 10200 pM, the koff was 0.0164 s⁻¹ and the kon is 1.61e+06 M⁻¹ s⁻¹.

B19: COMBO_Rd4_6nM_C25 (antibody, V domains shown)
VH: B13 VH with L58T, P59Y, S104P
VL: B13 VL with A31S, A32P, M93Q, C94S
notes: IgG
In test [3], B19 showed a Kd of 14 pM, a koff of 0.000113 s⁻¹ and an association rate constant (kon) of 7.98e+06 M⁻¹ s⁻¹. In addition, in test [4], the Kd turned out to be 79 pM, the koff came out at 0.000226 s⁻¹ and the kon was 2.85e+06 M⁻¹ s⁻¹.

B20: P5C1_VHVL (antibody, V domains shown)
VH: B13 VH with L58T, P59Y
VL: B13 VL with A31S, A32T, M49I, I54S, T57P, M93S, C94T, W95S
notes: IgG; also called PC1
B20: in test [3], the Kd turned out to be 5990 pM, the koff was found to be 0.0692 s⁻¹ and the kon came to 1.16e+07 M⁻¹ s⁻¹. In test [4], the Kd is 15200 pM, the off-rate constant (koff) was 0.0538 s⁻¹ and the kon came out at 3.53e+06 M⁻¹ s⁻¹.

These data come from patent publication US20190241669A1 (published 2019).
